B1: POU domain, class 3, transcription factor 3, residues 408 to 463; numbered along this chain, P20264 (parent)
chain: KKRTSIEVSVKGALESHFLKCPKPSAQEITNLADSLQLEKEVVRVWFCNRRQKEKR

Variants of: B1
Assay: abundance fitness (aPCA) (normalised: wild type 0, dead -1); higher = more abundant; growth selection in yeast, the domain comes from the species named
Settings: Homo sapiens

Abundance fitness, by site and new letter:
V42: F -0.056; Q -0.016; R -0.224; D -0.014; E 0.032; M 0.084; C -0.172; G -0.339; W -0.108; I -0.107; L -0.091; A 0.003; H -0.34; P -0.556; N -0.586; K -0.333; S -0.094; Y -0.02
L36: S -0.866; D -1.02; I -0.377; R -0.955; M -0.166; P -1.03; F -0.177; V -0.522; N -0.869; Y -0.313; G -0.929; W -0.565; Q -0.812; A -0.906; H -0.434; C -0.517
A33: V -0.955; I -0.864; Q -0.931; L -0.889; P -0.909; T -0.939; K -0.981; N -0.941; W -0.878; Y -0.836; M -0.823; R -0.989; F -0.941; S -0.052; H -0.513; G -0.623
R44: V -0.224; W -0.377; E 0.213; S -0.55; G -0.165
E41: W -0.3; F -1.1; S -0.243; Q -0.414; H -0.196; D 0.037; N -0.318; P -0.933; T -0.308; Y -0.625; V -0.884; G -0.305; C -0.54; M -0.534; R -0.352; A -0.344
E39: H -0.224; C -0.109; F -0.948; R -0.327; N 0.013; T -0.074; K -0.258; Q -0.322; P -0.116; W -0.89; M -0.428; D 0.124; I -0.919; L -0.719; S -0.055; G -0.257; A -0.153; Y -0.927
D34: N 0.143
S35: F -0.177; A -0.019; I -0.122; C -0.079; R 0.117; H -0.048; T -0.07; L -0.083; D -0.158; P -0.76; N -0.078; K 0.162; W -0.228; Q -0.04; E -0.032; G -0.194; M -0.133
K40: H -0.136; G -0.056; Q 0.122; S 0.016; W -0.073; N -0.118; I 0.048; C -0.038; R -0.06; E 0.077; D -0.028; L -0.103; T -0.076; M -0.336
Q37: F -0.3; L -0.188; H -0.034; T -0.257; A 0.013; R -0.072; P -0.671; W -0.374; Y -0.342; D 0; G 0.013; C -0.156; S -0.054; I -0.453; E -0.042; N -0.037
L38: C -0.387; F -0.91; Q -0.605; G -0.943; A -0.693; I -0.048; Y -0.982; M -0.13; R -0.889; H -0.735; T -0.18; K -0.895; P -0.951; S -0.699
V43: D -0.972; H -0.673; E -0.792; W -0.994; C -0.714; T -0.595; F -1.02; I -0.341; L -0.382; Q -0.88; S -0.926; P -0.818; R -0.931; N -0.493; M -0.863; G -0.967

From the Human Domainome abundance scans (Beltran et al. 2025)
